T1: BabAgo (short pAgo subunit of BabSPARTA);BabTIR-APAZ (subunit of BabSPARTA) (Bacillales bacterium;Bacillales …, UniProt PDB:8QLP_2;PDB:8QLP_1 1-507;1-452, |)
T1 sequence 1: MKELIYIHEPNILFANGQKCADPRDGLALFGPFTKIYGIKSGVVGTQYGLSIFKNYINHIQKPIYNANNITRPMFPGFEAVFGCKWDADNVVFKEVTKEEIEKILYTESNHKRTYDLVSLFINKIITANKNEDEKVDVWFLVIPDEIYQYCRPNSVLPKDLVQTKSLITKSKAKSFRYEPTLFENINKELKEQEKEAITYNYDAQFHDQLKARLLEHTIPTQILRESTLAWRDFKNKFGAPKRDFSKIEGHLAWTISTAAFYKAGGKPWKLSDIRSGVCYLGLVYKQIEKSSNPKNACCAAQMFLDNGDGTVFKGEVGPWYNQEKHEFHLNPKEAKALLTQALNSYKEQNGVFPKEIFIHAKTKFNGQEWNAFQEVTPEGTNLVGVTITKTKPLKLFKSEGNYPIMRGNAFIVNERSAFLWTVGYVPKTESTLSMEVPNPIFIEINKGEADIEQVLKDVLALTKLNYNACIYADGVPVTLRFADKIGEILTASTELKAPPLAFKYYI
T1 sequence 2: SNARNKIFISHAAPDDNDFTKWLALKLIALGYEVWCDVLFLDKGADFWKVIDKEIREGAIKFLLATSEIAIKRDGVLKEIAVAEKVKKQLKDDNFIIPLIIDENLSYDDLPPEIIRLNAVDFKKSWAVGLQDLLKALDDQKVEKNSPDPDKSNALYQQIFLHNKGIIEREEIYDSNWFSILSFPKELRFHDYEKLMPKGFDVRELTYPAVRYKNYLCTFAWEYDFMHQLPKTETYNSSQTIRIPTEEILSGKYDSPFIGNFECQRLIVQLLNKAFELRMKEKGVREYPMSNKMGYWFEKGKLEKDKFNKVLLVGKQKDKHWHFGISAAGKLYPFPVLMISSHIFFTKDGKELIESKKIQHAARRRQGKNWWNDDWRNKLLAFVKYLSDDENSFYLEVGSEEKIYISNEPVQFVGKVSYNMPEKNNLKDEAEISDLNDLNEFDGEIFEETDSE


Tests used:
[1] = target: BabSPARTA complex (BabAgo:BabTIR-APAZ heterodimer) (Bacillales bacterium); assay: cryo-EM structure
[2] = target: T1, BabAgo (short pAgo subunit of …); assay: cryo-EM structure

Molecule	stoichiometry N [1]	binding result [2]
BabSPARTA complex (BabAgo:BabTIR-APAZ heterodimer)	4	–
guide RNA oBK084 / target DNA oBK382 (DNA:RNA, 5'-phosphate on guide RNA) RNA: UGACGGCUCUAAUCUAUUAGU DNA: CAACTAATAGATTAGAGCCGTCAAT	–	binds

From PMC10899771
